Data from patent publication US20210171654A1 (FORTY SEVEN, published 2021).
Where “and” joins values, the source holds several entries; their conditions need not be identical. Equal values may be shown once.

B1: 3C2 (parental mouse anti-human SIRPa monoclonal antibody) (antibody, V domains shown)
VH: QVQLQQPGAELVRPGSSVKLSCKASGYTFTSYWMHWVKQRPIQGLEWIGNIDPSDSDTHYNQKFKDKATLTVDKSSSTAYMQLSSLTSEDSAVYYCARGYSKYYAMDYWGQGTSVTVSS
VL: DVLMTQTPLSLSVSLGDQASISCRSSQSIVHSYGNTYLEWYLQKPGQSPKLLIYKVSNRFSGVPDRFSGSGSGTDFTLKISRVEAEDLGVYYCFQGSHVPYTFGGGTKLEIK
notes: Hybridoma-derived mouse antibody; also called mouse 3C2
B2: Humanized 1H9 (antibody, human IgG1, kappa, N297A, V domains shown)
VH: QVQLVQSGAEVKKPGASVKVSCKASGYTFTSYWITWVKQAPGQGLEWIGDIYPGSGSTNHIEKFKSKATLTVDTSISTAYMELSRLRSDDTAVYYCATGYGSSYGYFDYWGQGTLVTVSS
VL: DIQMTQSPSSLSASVGDRVTITCRASENIYSYLAWYQQKPGKAPKLLIYTAKTLAEGVPSRFSGSGSGTDFTLTISSLQPEDFATYYCQHQYGPPFTFGQGTKLEIKR
notes: also called Hu1H9-G1; humanized 1H9-G1
B3: 1H9 (parental mouse anti-human SIRPa monoclonal antibody) (antibody, V domains shown)
VH: QVQLQQPGAERVKPGASVKMSCKASGYTFTSYWITWVKQRPGQGLEWIGDIYPGSGSTNHIEKFKSKATLTVDTSSNTAYMQLSRLTSEDSAVYYCATGYGSSYGYFDYWGQGTTLTVSS
VL: DIQMTQSPASLSASVGETVTITCRASENIYSYLAWYQQKQGKSPQLLVYTAKTLAEGVPSRFSGSGSGTQFSLKINSLQPEDFGNYYCQHQYGPPFTFGSGTRLVIK
notes: Hybridoma-derived mouse antibody; also called mouse 1H9

Assays:
[1] = biological target: T1, human SIRPG-His fusion protein (human, UniProt Q9P1W8-2 29-327, limits assumed); assay: ELISA, binding to human SIRPG-His fusion protein
T1 construct: also called SIRP gamma; not shown: His tag

[2] = biological target: T2, human SIRP-alpha variant 1 (V1) on monocytes and macrophages of V1 homozygous donors (human, UniProt P78324 31-146); assay: flow cytometry on monocytes; blocking of AF488-conjugated human CD47-Fc binding
T2 construct: the whole native protein stood on the cells; also called SIRPa V1
Experimental: (§1) Blocking human CD47 binding on monocytes isolated from human donors. Human peripheral blood mononuclear cells (PBMCs) were isolated from human blood using Ficoll. 5×10⁵ cells were incubated with 1 ug/ml of AF488-conjugated human CD47-Fc fusion protein in the absence or presence of increasing concentrations of hHu1H9-G1. Binding of CD47 on the cells was measured and analyzed by flow cytometry.

[3] = biological target: T3, human SIRP-alpha variant 2 (V2) on monocytes and macrophages of V2 homozygous donors (human, UniProt Q5TFQ8 30-145); assay: as above
T3 construct: the whole native protein stood on the cells; The definitions name GenBank CAA71403.1 for the V2 form (residues 30-504 mature); also called SIRPa V2
Experimental: as §1

[4] = biological target: T4, human SIRP-alpha V1/V5 (heterozygous) on monocytes and macrophages of V1/V5 donors (human); assay: as above
T4 construct: Not a complex: the two allelic forms carried together by the cells of heterozygous donors
Experimental: as §1

T2 sequence (P78324 31-146, change not shown): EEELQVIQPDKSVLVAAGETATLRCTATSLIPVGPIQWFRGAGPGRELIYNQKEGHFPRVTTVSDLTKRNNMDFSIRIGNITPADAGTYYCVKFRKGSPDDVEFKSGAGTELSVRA
T1 sequence (Q9P1W8 62-360 limits assumed): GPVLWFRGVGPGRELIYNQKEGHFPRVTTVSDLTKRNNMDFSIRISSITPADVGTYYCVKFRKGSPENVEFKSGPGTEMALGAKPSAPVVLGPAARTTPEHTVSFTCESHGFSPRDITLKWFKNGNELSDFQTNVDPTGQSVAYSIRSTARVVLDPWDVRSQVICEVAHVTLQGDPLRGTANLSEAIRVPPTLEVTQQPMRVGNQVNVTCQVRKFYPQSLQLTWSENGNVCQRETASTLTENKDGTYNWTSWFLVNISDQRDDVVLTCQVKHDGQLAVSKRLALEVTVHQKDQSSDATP
T3 sequence (Q5TFQ8 other isoform, or with tags, fused parts or gaps mutant): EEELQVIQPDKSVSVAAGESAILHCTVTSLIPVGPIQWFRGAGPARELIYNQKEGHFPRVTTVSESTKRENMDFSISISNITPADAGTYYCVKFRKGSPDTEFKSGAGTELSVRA
T4 sequence (P78324 whole entry): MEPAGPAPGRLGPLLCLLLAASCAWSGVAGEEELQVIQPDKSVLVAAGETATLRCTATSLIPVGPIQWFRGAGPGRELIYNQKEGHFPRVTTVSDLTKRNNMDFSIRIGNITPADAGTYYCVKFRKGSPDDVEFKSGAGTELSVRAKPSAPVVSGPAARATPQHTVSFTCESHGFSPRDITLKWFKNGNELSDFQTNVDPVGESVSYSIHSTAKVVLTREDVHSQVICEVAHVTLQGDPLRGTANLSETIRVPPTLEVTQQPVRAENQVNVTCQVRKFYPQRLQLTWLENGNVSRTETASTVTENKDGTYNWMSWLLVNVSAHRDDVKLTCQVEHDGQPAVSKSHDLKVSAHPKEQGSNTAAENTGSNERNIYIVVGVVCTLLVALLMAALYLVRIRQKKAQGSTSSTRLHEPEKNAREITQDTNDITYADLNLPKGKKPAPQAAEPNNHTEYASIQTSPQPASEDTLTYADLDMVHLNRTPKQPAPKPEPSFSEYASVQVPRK

Row | Binder | binding result [1] | IC50 (read off the curve) [2] | IC50 (read off the curve) [3] | IC50 (read off the curve) [4]
1 | B1 | no binding (tested: about 3000 ng/mL) |  |  | 
2 | B2 |  | ~8 µg/mL and ~4 µg/mL | ~20 µg/mL | ~3 µg/mL
3 | B3 | no binding (tested: about 3000 ng/mL) |  |  | 
